Experimental data reported in publication PMC7689490, “Designed CXCR4 mimic acts as a soluble chemokine receptor that blocks atherogenic inflammation by agonist-specific targeting” (Nature Communications, 2020).
Values joined by “and” are separate entries in the source; they are usually repeats but may differ in a detail not shown here. Identical values can stand only once.

Experiments:
[1] = biological target: Fluos-msR4M-LS (fluorescein-labelled ECL1[97–110] and ECL2[182–196] joined only by a disulfide bridge, no synthetic linker) (human), P61073; assay: other fluorescence titration; Fluos-labelled CXCR4 ectodomain peptide at 5 nM titrated with unlabelled MIF, MIF(10xAla), CXCL12 or MIF peptide fragments; 10 mM sodium phosphate, pH 7.4, 1% HFIP; emission at 522 nm; apparent KD, 1/1 binding model; conditions: remark: other sources report otherwise
[2] = biological target: Fluos-msR4M-LS (human), P61073; assay: other fluorescence titration; 5 nM Fluos-labeled ectodomain peptide titrated with unlabeled MIF, MIF peptide or CXCL12; 10 mM sodium phosphate, pH 7.4, 1% HFIP; emission at 522 nm; apparent KD, 1/1 binding model; one constant for each of three curves; conditions: remark: other sources report otherwise

Binder	Kd [1]	Kd [2]
macrophage migration-inhibitory factor (MIF), recombinant human, unlabelled, P14174 1-115 (natural protein, here or on the partner: disulfide bridge from Cys-109 to Cys-186 of the ECL2 chain; C-terminal amide; Fluos (fluorescein) label, chain and position not stated | disulfide bridge from Cys-186 to Cys-109 of the ECL1 chain; C-terminal amide) MPMFIVNTNVPRASVPDGFLSELTQQLAQATGKPPQYIAVHVVPDQLMAFGGSSEPCALCSLHSIGKIGGAQNRSYSKLLCGLLAERLRISPDRVYINYYDMNAANVGWNNSTFA	6.9 nM	–
macrophage migration-inhibitory factor (MIF), recombinant human, P14174 1-115 (natural protein, here or on the partner: disulfide bridge from Cys-109 to Cys-186 of the ECL2 chain; C-terminal amide; Fluos label on the molecule (chain and position not stated) | disulfide bridge from Cys-186 to Cys-109 of the ECL1 chain; C-terminal amide) MPMFIVNTNVPRASVPDGFLSELTQQLAQATGKPPQYIAVHVVPDQLMAFGGSSEPCALCSLHSIGKIGGAQNRSYSKLLCGLLAERLRISPDRVYINYYDMNAANVGWNNSTFA	–	9 nM and 5 nM
